Source: article PMC11407943, “Cdc14 phosphatases use an intramolecular pseudosubstrate motif to stimulate and regulate catalysis” (The Journal of Biological Chemistry, 2024)

Tested on: T1, Cc1cc(=O)oc2c(F)c(OP(=O)(O)O)c(F)cc12
T1 construct: codons 1-411; N-terminal GST; expressed in E. coli
Format: biochemical
Conditions: pH 7.5; 30.0 °C
Source text: Enzym e kcat (sec-1) KM (µM)

With “hCdc14B^3A (Homo sapiens; K435A/L431A/R432A)” the Km was 1.68 µM.
